Reference: publication PMC3415446

Legend:
[1] = target: NDV Ulster HN NA domain (residues 124-616), containing the C-terminal extension (Newcastle disease virus (NDV), strain Ulster); test: SEC
[2] = target: NDV Ulster HN NA domain (residues 124-616), containing the C-terminal extension (Newcastle disease virus (NDV), strain Ulster); test: negative-stain electron microscopy
[3] = target: NDV Ulster HN NA domain (residues 124-616), containing the C-terminal extension (Newcastle disease virus (NDV), strain Ulster); test: SDS-PAGE under non-reducing conditions
[4] = target: NDV Ulster HN NA domain (residues 124-616), containing the C-terminal extension (Newcastle disease virus (NDV), strain Ulster); test: sucrose density gradient sedimentation
[5] = target: NDV Ulster HN ectodomain (residues 49-616) (Newcastle disease virus (NDV), strain Ulster); test: SDS-PAGE under non-reducing conditions
[6] = target: NDV Ulster HN ectodomain (residues 49-616) (Newcastle disease virus (NDV), strain Ulster); test: not stated; ectodomain in solution; method not given

Measured: stoichiometry N

NDV Ulster HN NA domain (residues 124-616), containing the C-terminal extension (domain or fragment)
2: [1] | [2] | [3] | [4]

NDV Ulster HN ectodomain (residues 49-616) (domain or fragment)
2: [5] | [6]
